Experimental data reported in article PMC7521599.

Columns and labels:
[1] = target: Skp1 (OCP2) (Cavia porcellus) (UniProt P63209); conditions: cited from earlier work
[2] = target: Skp1ΔΔ (doubly truncated Dictyostelium Skp1A: Δinternal loop/ΔC-terminus) (Dictyostelium discoideum) (UniProt P52285); assay: AUC
[3] = target: T1, Dictyostelium discoideum Skp1A (Dictyostelium discoideum), P52285; assay: AUC; conditions: remark: other sources report otherwise
T1 chain: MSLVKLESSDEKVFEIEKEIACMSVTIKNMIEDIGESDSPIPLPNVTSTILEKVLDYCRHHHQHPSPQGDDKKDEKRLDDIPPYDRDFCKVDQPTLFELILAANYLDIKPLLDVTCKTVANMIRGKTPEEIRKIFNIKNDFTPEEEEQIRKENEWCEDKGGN

In the case of Skp1 (OCP2) (from UniProt P63209), the Kd [1] is given as 1100 nM.

“Skp1ΔΔ (doubly truncated Dictyostelium Skp1A: Δinternal loop/ΔC-terminus) (from UniProt P52285 1-125) (domain or fragment)” gave a stoichiometry N [2] of 2.

B1: Dictyostelium discoideum Skp1A, P52285 1-162 (natural protein)
chain: T1 chain
With B1 the Kd [3] was 2500 nM and the stoichiometry N [3] was 2.
